{"source": "patent US20240059763A1", "about": "(ZHUHAI TRINOMAB PHARMACEUTICAL, published 2024)", "binders": {"B1": {"name": "fully human anti-RSV monoclonal antibody TRN1021 (antibody, V domains shown)", "VH": "QVQLVQSGAEVKKPGESLKISCQGSGYSFNNYYIGWVRQMPGKGLEWMVIIYPGDSDTKYSPSFQGQVTVSADRSINTAYLQWSSLRASDTAVYYCVRMDTVTTGAGVGFNWFFDLWGRGTLVTVSS", "VL": "EIVLTQSPATLSVSPGERATLSCRASQSVTSYLAWYQQKPGQAPRLLIYGASSRATGVPARFSGSGSETEFTLTISSLQSEDFAVYYCQQYNDWPAITFGQGTRLENK", "notes": "It was expressed in HEK293 cells as a whole human antibody, purified on Protein A, detected with anti-human IgG and captured through anti-human IgG (Fc); also called fully human anti-RSV-F protein monoclonal antibody TRN1021"}}, "key": {"[1]": {"biological_target": "T1, RSV Pre-F protein (pre-fusion conformation of the F protein of RSV A2 strain) (RSV A2 strain, UniProt P03420 26-513)", "T1 construct": "Recombinant trimeric protein; also called pre-fusion F protein; antigen Pre-F protein", "T1 sequence (P03420 26-513)": "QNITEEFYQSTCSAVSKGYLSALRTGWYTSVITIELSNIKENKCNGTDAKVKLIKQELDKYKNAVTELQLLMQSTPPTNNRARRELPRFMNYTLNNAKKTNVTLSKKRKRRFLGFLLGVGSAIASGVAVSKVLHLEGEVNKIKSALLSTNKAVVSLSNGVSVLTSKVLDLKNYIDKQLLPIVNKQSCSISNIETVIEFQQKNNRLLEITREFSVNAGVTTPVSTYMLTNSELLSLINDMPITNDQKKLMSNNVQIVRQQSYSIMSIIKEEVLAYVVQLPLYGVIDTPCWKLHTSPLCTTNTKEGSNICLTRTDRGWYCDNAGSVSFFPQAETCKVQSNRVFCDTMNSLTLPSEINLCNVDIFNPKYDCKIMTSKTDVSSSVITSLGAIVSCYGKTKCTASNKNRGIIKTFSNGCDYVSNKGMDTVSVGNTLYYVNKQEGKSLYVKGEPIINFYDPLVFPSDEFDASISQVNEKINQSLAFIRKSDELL", "test": "ELISA, RSV Pre-F coated on the plate, TRN1021 in 3-fold dilutions, anti-human IgG-HRP, OD450"}, "[2]": {"biological_target": "T1, RSV Pre-F protein (pre-fusion …)", "test": "SPR (Biacore X100), TRN1021 captured on anti-human IgG (Fc), Pre-F as analyte at 2.5-40 µg/mL"}}, "data": [{"binder": "B1", "values": [{"measurement": "EC50 (read off the curve)", "setting": "[1]", "result": "~8", "unit": "ng/mL"}, {"measurement": "Kd", "setting": "[2]", "result": "~1", "unit": "nM"}]}]}
